Laboratory results from patent publication US20060019342A1 (AstraZeneca / MedImmune, published 2006).
Residue numbers refer to the chain shown, from its start. Numbers in names are those of the source.

B1: 12G3/M, heavy chain modified 12G3 (S60A/A61D, Kabat) (antibody, human IgG1, V domains shown)
VH: QMQLVQSGPEVKKPGTSVKVSCKASGFTFDDYSMNWVRQARGQRLEWIGFIRNKANDYTTEYADSVKGRVTITRDMSTSTAYMELSSLRSEDTAVYYCARYPRHHAMDSWGQGTSVTVSS
VL: DIQMTQSPSSLSASVGDRVTITCRASQSISNNLHWYQQKPGKAPKLLIKYAFQSISGVPSRFSGSGSGTDFTFTISSLQPEDFATYYCQQANSWPLTFGGGTKVEIK
notes: The light chain is unaltered; Human IgG1 / kappa; also called 12G3/Mut
B2: 4C10 humanized anti-EphA2 monoclonal antibody (antibody, human IgG1, V domains shown)
VH: B1 VH with N35T, D57A, A63S, D64A
VL: B1 VL with A91S
notes: Expressed in HEK 293 cells as soluble human IgG1 (human gamma 1 heavy chain, human kappa light chain)
B3: 4C10/M, heavy chain modified 4C10 (S60A/A61D, Kabat) (antibody, human IgG1, V domains shown)
VH: B1 VH with N35T, D57A
VL: B1 VL with A91S
notes: The light chain is unaltered; Human IgG1 / kappa; also called 4C10/Mut
B4: 12G3 humanized anti-EphA2 monoclonal antibody (antibody, human IgG1, V domains shown)
VH: B1 VH with A63S, D64A
VL: B1 VL
notes: Expressed as soluble human IgG1 (human gamma 1, human kappa)

What was measured:
EphA2-Fc [1] = target: T1, EphA2-Fc (UniProt P29317 25-534, limits assumed); test: SPR (BIAcore 3000), EphA2-Fc immobilized on CM5 chip, soluble IgG, 1:1 Langmuir fit
T1 construct: Amine-coupled to a CM5 chip; not shown: Fc part
T1 sequence (P29317 25-534 limits assumed): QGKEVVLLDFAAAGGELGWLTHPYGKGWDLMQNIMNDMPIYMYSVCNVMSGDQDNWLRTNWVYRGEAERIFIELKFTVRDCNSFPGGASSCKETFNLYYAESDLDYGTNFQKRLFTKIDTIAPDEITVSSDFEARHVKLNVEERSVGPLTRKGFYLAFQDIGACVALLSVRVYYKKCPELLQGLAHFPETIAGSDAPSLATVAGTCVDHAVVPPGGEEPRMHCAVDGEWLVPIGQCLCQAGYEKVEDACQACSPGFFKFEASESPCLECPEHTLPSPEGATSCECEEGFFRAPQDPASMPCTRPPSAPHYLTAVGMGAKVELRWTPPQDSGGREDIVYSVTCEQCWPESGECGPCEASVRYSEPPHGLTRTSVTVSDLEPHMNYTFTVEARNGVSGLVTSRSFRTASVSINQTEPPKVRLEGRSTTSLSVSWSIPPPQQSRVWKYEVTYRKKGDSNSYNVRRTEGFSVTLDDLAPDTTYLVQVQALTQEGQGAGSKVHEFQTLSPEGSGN
Protocol: (§1) The interaction of soluble 12G3, 4C10, 12G3/Mut and 4C10/Mut with immobilized EphA2-Fc was monitored by surface plasmon resonance detection using a BIAcore 3000 instrument (Pharmacia Biosensor, Uppsala, Sweden). EphA2-Fc was coupled to the dextran matrix of a CM5 sensor chip (Pharmacia Biosensor) using an Amine Coupling Kit as described (Johnsson et al. supra) at a surface density of 162 RU. IgGs were diluted in 0.01 M HEPES pH 7.4 containing 0.15 M NaCl, 3 mM EDTA and 0.005% P20. All subsequent dilutions were made in the same buffer. All binding experiments were performed at 25° C. with IgG concentrations typically ranging from 100 nM to 0.2 nM at a flow rate of 75 μL/min; data were collected for approximately 20 min and one 1-min pulse of 1M NaCl, 50 mM NaOH was used to regenerate the surfaces. IgGs were also flowed over an uncoated cell and the sensorgrams from these blank runs subtracted from those obtained with EphA2-Fc-coupled chips. Data were fitted to a 1:1 Langmuir binding model. This algorithm calculates both the kₒₙ and the koff, from which the apparent equilibrium dissociation constant, KD, is deduced as the ratio of the two rate constants (koff/kₒₙ).

EphA2-Fc [2] = target: T1, EphA2-Fc; test: SPR (BIAcore 3000), EphA2-Fc immobilized on CM5 chip, soluble IgG, 1:1 Langmuir fit; below the limit of detection
Protocol: as §1

Binder	kon (EphA2-Fc [1]) [M⁻¹ s⁻¹]	Kd (EphA2-Fc [2]) [nM]	koff (EphA2-Fc [2]) [s⁻¹]	Kd (EphA2-Fc [1]) [nM]	koff (EphA2-Fc [1]) [s⁻¹]
B1	187000	< 0.027	< 5e-06	–	–
B2	102000	–	–	0.095	9.75e-06
B3	64100	–	–	0.093	5.96e-06
B4	246000	–	–	0.034	8.49e-06
